Article PMC6589570 (Molecular Biology of the Cell, 2019)

Biological target: T1, cytosolic domain of SEC12 (PREB), his-tagged (UniProt Q9HCU5 1-388)
T1 sequence (looked up): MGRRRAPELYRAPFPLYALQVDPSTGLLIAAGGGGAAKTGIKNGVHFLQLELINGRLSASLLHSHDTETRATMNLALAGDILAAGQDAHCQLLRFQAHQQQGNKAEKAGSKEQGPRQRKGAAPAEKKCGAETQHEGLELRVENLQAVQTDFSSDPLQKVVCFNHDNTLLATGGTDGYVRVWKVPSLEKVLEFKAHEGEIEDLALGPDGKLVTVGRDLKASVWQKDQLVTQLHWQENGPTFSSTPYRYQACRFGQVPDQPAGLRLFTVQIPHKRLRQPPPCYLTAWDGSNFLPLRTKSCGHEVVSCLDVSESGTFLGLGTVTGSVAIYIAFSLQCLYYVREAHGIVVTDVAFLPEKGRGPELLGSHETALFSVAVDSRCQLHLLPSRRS
Test: liposome flotation

B1: fatty-acid binding protein 5 (FABP5), rat (natural protein, UniProt P55053 1-135, looked up)
chain: MASLKDLEGKWRLVESHGFEDYMKELGVGLALRKMGAMAKPDCIITLDGNNLTVKTESTVKTTVFSCTLGEKFDETTADGRKTETVCTFTDGALVQHQKWEGKESTITRKLKDGKMVVECVMNNAICTRVYEKVQ
For B1, the “fold recruitment to liposomes with SEC12 against without SEC12” value was ~3.5 fold.
